Numbered stars: 1 amine (or outer) side, 2 acyl side, 3 side chain; on linkers, the order of the positions; unused ones are H or OH. Square brackets hold non-standard residues; d marks the D form. Peptide text beside a SMILES is read from it. * marks the point of attachment. Hydrazinoacetyl = O=C(CNN[*:1])[*:2]; Isonicotinoyl = O=C(c1ccncc1)*
Tests used:
EBC-1 cells = type: cell-based, human; details: 10 µM, 3 hrs, fixed, 30 profiles
Experimental: In addition to the internalization experiments, the surface morphology of INH-peptide-treated and fixed EBC-1 cells was also studied with atomic force microscopy (AFM) ( Supplementary Information 1.3 ). High-resolution imaging of the cell surfaces was performed with a Flex-Axiom AFM system (Nanosurf, Liestal, Switzerland).The representative images and surface roughness of the native and treated cells are shown in Supplementary Figure S2 .
1.3 Membrane integrity evaluation by atomic force microscopy (AFM) […]
High resolution imaging of the surfaces were performed with a Flex-Axiom AFM system (Nanosurf, Liestal, Switzerland) operating in dynamic mode utilizing soft-tapping cantilevers (Tap150-G, BudgetSensors) with nominal force constant of 5 N/m. The recorded images were evaluated with the Gwyddion software. […]
Two cut-off frequencies were chosen with real-space wavelengths of 1 μm and 200 nm. […] Figure 2D,E,F. Scale dependent surface roughness of the cells was determined according to Antonio et al. Mean Rq values are somewhat higher in the peptide and conjugate treated cells, but […]
Supplementary Figure 2. […] The apex area of the cells was selected for imaging with a scan area of 5 μm × 5 μm (512 × 512 pixel resolution), where the cellular curvature has the smallest distortion effect on the recorded height profiles. […]
1.4. […] To quantify […]

[1] = type: in vitro ADME; details: rat liver lysosomal homogenate, 37 °C, LC-MS
Experimental: Next, we examined the enzymatic stability of two peptide conjugates in rat liver lysosomal homogenate (see Supplementary Information 2 for the method description). Peptides were dissolved at 0.025 µg/µl concentration then allowed to react with the lysosomal homogenate. Degradation of the conjugates was fast. […]
1.2 Lysosomal degradation studies
Enzymatic stability of INH-Dhvar4 and INH-Penetratin conjugates were assayed in rat liver lysosomal homogenate (protein content was 16.6 µg/µl). Peptides were dissolved in 0.2 M Sodium acetate buffer (pH=5.03) at 0.025 µg/µl concentration and added to the lysosomal homogenate to reach 1 : 1 protein / peptide ratio (37 °C, 600 rpm vortex) . At different time points (5 min, 30 min, 1 h, 6 h, 24 h) the reaction was stopped by the addition of 5 µl formic acid. Sampled were then measured by LC-MS using a Thermo Scientific Q Exactive Focus Hybrid Quadrupole -Orbitrap Mass Spectrometer (Suppl. Figu re 1). For chromatography, a Wa ters Acquity UPLC BEH C18 (1.7 µ, 150 × 2.1 mm) column was used with a flow rate of 300 µL/min applying a gradient elution from 2% to […]
(1 picture or pasted object on this page, not shown here)

MonoMac-6 cells = details: 50 µM

Question: With `CC(C)C[C@H](NC(=O)[C@H](CCCNC(=N)N)NC(=O)[C@H](CCCCN)NC(=O)CNNC(=O)c1ccncc1)C(=O)N[C@@H](Cc1ccccc1)C(=O)N[C@@H](CCCCN)C(=O)N[C@@H](CCCCN)C(=O)N[C@@H](CC(C)C)C(=O)N[C@@H](CC(C)C)C(=O)N[C@@H](Cc1ccccc1)C(=O)N[C@@H](CO)C(=O)N[C@@H](CC(C)C)C(=O)N[C@@H](CCCNC(=N)N)C(=O)N[C@@H](CCCCN)C(=O)N[C@@H](Cc1ccc(O)cc1)C(N)=O` [INH-Dhvar4] (Isonicotinoyl-[Hydrazinoacetyl]KRLFKKLLFSLRKY-NH2) as the compound, how does the “membrane integrity (AFM surface roughness Rq)” value (EBC-1 cells) read?
Answer: The value was “membrane integrity maintained”.

Question: And the “peaks of the intact conjugates after 30 min of incubation” value ([1]; 0.2 M sodium acetate buffer pH 5.03, 0.025 µg/µl, 1:1 protein/peptide ratio)?
Answer: The value was “almost disappeared”.

Question: And the “most stable fragment (main peak after 24 h of incubation)” value ([1]; pH 5.03, 0.025 µg/µl)?
Answer: The value was “tripeptide (KRL) covalently attached to INH”.

Question: And the “viability of MonoMac-6 cells” value (MonoMac-6 cells)?
Answer: The value was > 80%.

From paper PMC8632718, “Novel Assay Platform to Evaluate Intracellular Killing of Mycobacterium tuberculosis: In Vitro and In Vivo Validation” (Frontiers in Immunology, 2021)
